US20200055923A1 (HEXAL, published 2020)

Biological target: T1, VEGF165 (human VEGF-A), immobilized (human, UniProt P15692-4 27-191)
T1 construct: Immobilized on the Biacore chip; also called vascular endothelial growth factor A
Assay: SPR (Biacore), VEGF165 immobilized
Description: To study the binding of bevacizumab to VEGF, a surface plasmon resonance (SPR) assay using Biacore™ was carried out. The interaction between bevacizumab and its target, immobilized VEGF₁₆₅, is monitored in real time. Analysis of the association and dissociation of the binding partners allows the retrieval of the kinetic parameters kₐ (association rate constant) and kd (dissociation rate constant), which quantifies the interaction between bevacizumab or its variants and VEGF₁₆₅. Furthermore, the equilibrium dissociation constant KD is calculated using the formula KD=kd/kₐ.

T1 sequence (P15692 other isoform, or with tags, fused parts or gaps limits assumed): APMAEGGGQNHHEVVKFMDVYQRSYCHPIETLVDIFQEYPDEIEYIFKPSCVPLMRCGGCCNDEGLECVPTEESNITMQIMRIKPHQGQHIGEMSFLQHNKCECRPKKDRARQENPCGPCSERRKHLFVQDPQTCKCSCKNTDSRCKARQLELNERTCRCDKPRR

B1: bevacizumab CEX peak 1, fraction enriched in CDR-H1 glycosylated bevacizumab (antibody, human IgG1, kappa, V domains shown)
VH: EVQLVESGGGLVQPGGSLRLSCAASGYTFTNYGMNWVRQAPGKGLEWVGWINTYTGEPTYAADFKRRFTFSLDTSKSTAYLQMNSLRAEDTAVYYCAKYPHYYGSSHWYFDVWGQGTLVTVSS
VL: DIQMTQSPSSLSASVGDRVTITCSASQDISNYLNWYQQKPGKAPKVLIYFTSSLHSGVPSRFSGSGSGTDFTLTISSLQPEDFATYYCQQYSTVPWTFGQGTKVEIKR
modifications: N-linked complex-type glycan (core-fucosylated, mono- to tetra-antennary, partly sialylated) at N31 of the heavy chain, in CDR-H1
notes: Humanized IgG1; also called enriched CDR-H1 glycosylated bevacizumab obtained from CEX; Fd-glycosylated variant
B1 was tested. Which Kd did it give?
The Kd was 235 pM.
